Laboratory results taken from patent US20100256217.

T1: recombinant WNV capsid mutant rC(S36A), N-terminal hexa-histidine tag, expressed in E. coli from pQE30, Q9Q6P4
T1 chain: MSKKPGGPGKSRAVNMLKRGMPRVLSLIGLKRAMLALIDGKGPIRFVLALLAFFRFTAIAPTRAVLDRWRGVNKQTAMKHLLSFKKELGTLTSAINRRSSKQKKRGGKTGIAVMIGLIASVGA

T2: recombinant WNV capsid protein with an N-terminal hexa-histidine tag, expressed in E. coli from pQE30, Q9Q6P4
T2 chain: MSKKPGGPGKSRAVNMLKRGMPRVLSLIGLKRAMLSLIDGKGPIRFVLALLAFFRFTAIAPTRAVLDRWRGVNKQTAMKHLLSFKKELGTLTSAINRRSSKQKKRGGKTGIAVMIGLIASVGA


Tests used:
[1] = target: CKII-Pep, commercial CK2 substrate peptide
[2] = target: T1, recombinant WNV capsid mutant rC(S36A), …
[3] = target: T2, recombinant WNV capsid protein with an …

Row | Protein | dot-blot kinase assay [1] | in vitro phosphorylation (CK2 kinase assay, autoradiography) [2] | in vitro phosphorylation (32P-ATP kinase assay, autoradiography) [3] | in vitro phosphorylation (kinase assay with a single recombinant subunit) [3]
1 | recombinant CK2 (whole enzyme, Biomol) (protein) chain 1: MSGPVPSRARVYTDVNTHRPREYWDYESHVVEWGNQDDYQLVRKLGRGKYSEVFEAINITNNEKVVVKILKPVKKKKIKREIKILENLRGGPNIITLADIVKDPVSRTPALVFEHVNNTDFKQLYQTLTDYDIRFYMYEILKALDYCHSMGIMHRDVKPHNVMIDHEHRKLRLIDWGLAEFYHPGQEYNVRVASRYFKGPELLVDYQMYDYSLDMWSLGCMLASMIFRKEPFFHGHDNYDQLVRIAKVLGTEDLYDYIDKYNIELDPRFNDILGRHSRKRWERFVHSENQHLVSPEALDFLDKLLRYDHQSRLTAREAMEHPYFYTVVKDQARMGSSSMPGGSTPVSSANMMSGISSVPTPSPLGPLAGSPVIAAANPLGMPVPAAAGAQQ chain 2: not shown | Only Cp(30-48) and CK-II-Pep peptides reacted positively to CK2 assay | the phosphorylation signal was totally absent from C(S36A) while the wild rC still was labeled in the in vitro assay | purified fractions yielded was phosphorylated by CK2 | –
2 | purified recombinant CK2α subunit protein (Biomol) (protein) MSGPVPSRARVYTDVNTHRPREYWDYESHVVEWGNQDDYQLVRKLGRGKYSEVFEAINITNNEKVVVKILKPVKKKKIKREIKILENLRGGPNIITLADIVKDPVSRTPALVFEHVNNTDFKQLYQTLTDYDIRFYMYEILKALDYCHSMGIMHRDVKPHNVMIDHEHRKLRLIDWGLAEFYHPGQEYNVRVASRYFKGPELLVDYQMYDYSLDMWSLGCMLASMIFRKEPFFHGHDNYDQLVRIAKVLGTEDLYDYIDKYNIELDPRFNDILGRHSRKRWERFVHSENQHLVSPEALDFLDKLLRYDHQSRLTAREAMEHPYFYTVVKDQARMGSSSMPGGSTPVSSANMMSGISSVPTPSPLGPLAGSPVIAAANPLGMPVPAAAGAQQ | – | – | – | Neither of the subunits was able to phosphorylate the protein by themselves
